Data as given in PMC3113324, “AKAP5 and AKAP12 Form Homo-oligomers” (Journal of Molecular Signaling, 2011).
Substitutions are numbered along the chain they refer to. Names may count otherwise.

B1: His-tagged human AKAP12 (natural protein, UniProt Q02952 1-1782, looked up)
chain: MGAGSSTEQRSPEQPPEGSSTPAEPEPSGGGPSAEAAPDTTADPAIAASDPATKLLQKNGQLSTINGVAEQDELSLQEGDLNGQKGALNGQGALNSQEEEEVIVTEVGQRDSEDVSKRDSDKEMATKSAVVHDITDDGQEETPEIIEQIPSSESNLEELTQPTESQANDIGFKKVFKFVGFKFTVKKDKTEKPDTVQLLTVKKDEGEGAAGAGDHKDPSLGAGEAASKESEPKQSTEKPEETLKREQSHAEISPPAESGQAVEECKEEGEEKQEKEPSKSAESPTSPVTSETGSTFKKFFTQGWAGWRKKTSFRKPKEDEVEASEKKKEQEPEKVDTEEDGKAEVASEKLTASEQAHPQEPAESAHEPRLSAEYEKVELPSEEQVSGSQGPSEEKPAPLATEVFDEKIEVHQEEVVAEVHVSTVEERTEEQKTEVEETAGSVPAEELVEMDAEPQEAEPAKELVKLKETCVSGEDPTQGADLSPDEKVLSKPPEGVVSEVEMLSSQERMKVQGSPLKKLFTSTGLKKLSGKKQKGKRGGGDEESGEHTQVPADSPDSQEEQKGESSASSPEEPEEITCLEKGLAEVQQDGEAEEGATSDGEKKREGVTPWASFKKMVTPKKRVRRPSESDKEDELDKVKSATLSSTESTASEMQEEMKGSVEEPKPEEPKRKVDTSVSWEALICVGSSKKRARRGSSSDEEGGPKAMGGDHQKADEAGKDKETGTDGILAGSQEHDPGQGSSSPEQAGSPTEGEGVSTWESFKRLVTPRKKSKSKLEEKSEDSIAGSGVEHSTPDTEPGKEESWVSIKKFIPGRRKKRPDGKQEQAPVEDAGPTGANEDDSDVPAVVPLSEYDAVEREKMEAQQAQKSAEQPEQKAATEVSKELSESQVHMMAAAVADGTRAATIIEERSPSWISASVTEPLEQVEAEAALLTEEVLEREVIAEEEPPTVTEPLPENREARGDTVVSEAELTPEAVTAAETAGPLGAEEGTEASAAEETTEMVSAVSQLTDSPDTTEEATPVQEVEGGVPDIEEQERRTQEVLQAVAEKVKEESQLPGTGGPEDVLQPVQRAEAERPEEQAEASGLKKETDVVLKVDAQEAKTEPFTQGKVVGQTTPESFEKAPQVTESIESSELVTTCQAETLAGVKSQEMVMEQAIPPDSVETPTDSETDGSTPVADFDAPGTTQKDEIVEIHEENEVASGTQSGGTEAEAVPAQKERPPAPSSFVFQEETKEQSKMEDTLEHTDKEVSVETVSILSKTEGTQEADQYADEKTKDVPFFEGLEGSIDTGITVSREKVTEVALKGEGTEEAECKKDDALELQSHAKSPPSPVEREMVVQVEREKTEAEPTHVNEEKLEHETAVTVSEEVSKQLLQTVNVPIIDGAKEVSSLEGSPPPCLGQEEAVCTKIQVQSSEASFTLTAAAEEEKVLGETANILETGETLEPAGAHLVLEEKSSEKNEDFAAHPGEDAVPTGPDCQAKSTPVIVSATTKKGLSSDLEGEKTTSLKWKSDEVDEQVACQEVKVSVAIEDLEPENGILELETKSSKLVQNIIQTAVDQFVRTEETATEMLTSELQTQAHVIKADSQDAGQETEKEGEEPQASAQDETPITSAKEESESTAVGQAHSDISKDMSEASEKTMTVEVEGSTVNDQQLEEVVLPSEEEGGGAGTKSVPEDDGHALLAERIEKSLVEPKEDEKGDDVDDPENQNSALADTDASGGLTKESPDTNGPKQKEKEDAQEVELQEGKVHSESDKAITPQAQEELQKQERESAKSELTES
notes: A-kinase-anchoring protein 12 (AKAP12, gravin, SSECKS), human, full length (1-1782), calculated MW 191.5 kDa; also called gravin; SSECKS; source: E. coli, purified by gel filtration chromatography (Superose 12)
B2: HA-tagged full-length AKAP12 (1-1782) (natural protein, human, UniProt Q02952 1-1782, looked up)
chain: B1 chain
notes: AKAP12, human, full length (1-1782); also called HA-AKAP12; HA-tagged AKAP12; source: HEK293, transfected (pcDNA3.1), in whole-cell lysate
B3: full-length endogenous AKAP12 (natural protein, human (endogenous in HEK293), UniProt Q02952 1-1782, looked up)
chain: B1 chain
notes: AKAP12, endogenous in HEK293 cells, detected with anti-AKAP12 antibody; also called native AKAP12; endogenously expressed AKAP12; source: endogenous, HEK293 whole-cell lysate
B4: HA-AKAP12 (1-938) (domain or fragment, human, UniProt Q02952 1-938, looked up)
chain: MGAGSSTEQRSPEQPPEGSSTPAEPEPSGGGPSAEAAPDTTADPAIAASDPATKLLQKNGQLSTINGVAEQDELSLQEGDLNGQKGALNGQGALNSQEEEEVIVTEVGQRDSEDVSKRDSDKEMATKSAVVHDITDDGQEETPEIIEQIPSSESNLEELTQPTESQANDIGFKKVFKFVGFKFTVKKDKTEKPDTVQLLTVKKDEGEGAAGAGDHKDPSLGAGEAASKESEPKQSTEKPEETLKREQSHAEISPPAESGQAVEECKEEGEEKQEKEPSKSAESPTSPVTSETGSTFKKFFTQGWAGWRKKTSFRKPKEDEVEASEKKKEQEPEKVDTEEDGKAEVASEKLTASEQAHPQEPAESAHEPRLSAEYEKVELPSEEQVSGSQGPSEEKPAPLATEVFDEKIEVHQEEVVAEVHVSTVEERTEEQKTEVEETAGSVPAEELVEMDAEPQEAEPAKELVKLKETCVSGEDPTQGADLSPDEKVLSKPPEGVVSEVEMLSSQERMKVQGSPLKKLFTSTGLKKLSGKKQKGKRGGGDEESGEHTQVPADSPDSQEEQKGESSASSPEEPEEITCLEKGLAEVQQDGEAEEGATSDGEKKREGVTPWASFKKMVTPKKRVRRPSESDKEDELDKVKSATLSSTESTASEMQEEMKGSVEEPKPEEPKRKVDTSVSWEALICVGSSKKRARRGSSSDEEGGPKAMGGDHQKADEAGKDKETGTDGILAGSQEHDPGQGSSSPEQAGSPTEGEGVSTWESFKRLVTPRKKSKSKLEEKSEDSIAGSGVEHSTPDTEPGKEESWVSIKKFIPGRRKKRPDGKQEQAPVEDAGPTGANEDDSDVPAVVPLSEYDAVEREKMEAQQAQKSAEQPEQKAATEVSKELSESQVHMMAAAVADGTRAATIIEERSPSWISASVTEPLEQVEAEAALLTEEVLE
notes: AKAP12, human, N-terminal fragment, residues 1-938; also called AKAP12 N-terminal (1-938) fragment; source: HEK293, transfected (pcDNA3.1), in whole-cell lysate
B5: HA-AKAP12 (840-1782) (domain or fragment, human, UniProt Q02952 840-1782, looked up)
chain: DSDVPAVVPLSEYDAVEREKMEAQQAQKSAEQPEQKAATEVSKELSESQVHMMAAAVADGTRAATIIEERSPSWISASVTEPLEQVEAEAALLTEEVLEREVIAEEEPPTVTEPLPENREARGDTVVSEAELTPEAVTAAETAGPLGAEEGTEASAAEETTEMVSAVSQLTDSPDTTEEATPVQEVEGGVPDIEEQERRTQEVLQAVAEKVKEESQLPGTGGPEDVLQPVQRAEAERPEEQAEASGLKKETDVVLKVDAQEAKTEPFTQGKVVGQTTPESFEKAPQVTESIESSELVTTCQAETLAGVKSQEMVMEQAIPPDSVETPTDSETDGSTPVADFDAPGTTQKDEIVEIHEENEVASGTQSGGTEAEAVPAQKERPPAPSSFVFQEETKEQSKMEDTLEHTDKEVSVETVSILSKTEGTQEADQYADEKTKDVPFFEGLEGSIDTGITVSREKVTEVALKGEGTEEAECKKDDALELQSHAKSPPSPVEREMVVQVEREKTEAEPTHVNEEKLEHETAVTVSEEVSKQLLQTVNVPIIDGAKEVSSLEGSPPPCLGQEEAVCTKIQVQSSEASFTLTAAAEEEKVLGETANILETGETLEPAGAHLVLEEKSSEKNEDFAAHPGEDAVPTGPDCQAKSTPVIVSATTKKGLSSDLEGEKTTSLKWKSDEVDEQVACQEVKVSVAIEDLEPENGILELETKSSKLVQNIIQTAVDQFVRTEETATEMLTSELQTQAHVIKADSQDAGQETEKEGEEPQASAQDETPITSAKEESESTAVGQAHSDISKDMSEASEKTMTVEVEGSTVNDQQLEEVVLPSEEEGGGAGTKSVPEDDGHALLAERIEKSLVEPKEDEKGDDVDDPENQNSALADTDASGGLTKESPDTNGPKQKEKEDAQEVELQEGKVHSESDKAITPQAQEELQKQERESAKSELTES
notes: AKAP12, human, C-terminal fragment, residues 840-1782; also called AKAP12 C-terminal (840-1782) fragment; source: HEK293, transfected (pcDNA3.1), in whole-cell lysate
B6: HA-AKAP12M3 (S627A, S696-698A, S772A) (natural protein, human, UniProt Q02952 1-1782, looked up)
chain: B1 chain with S627A, S696A, S697A, S698A, S772A
notes: AKAP12, human, with alanine substitution of the protein kinase A phosphorylation sites; source: HEK293, transfected (pcDNA3.1), in whole-cell lysate

Biological target: the molecule itself
Test: SDS-PAGE (SDS-resistant oligomers); purified His-tagged proteins resolved on SDS-PAGE without urea; Coomassie staining and immunoblotting

Stoichiometry N, 2:
B1

Biological target: the molecule itself
Test: SDS-PAGE (SDS-resistant oligomers); whole-cell lysates of HEK293 cells on SDS-PAGE without urea; immunoblot with anti-HA or anti-AKAP12; cells also treated with isoproterenol (10 uM, 0, 5, 30 min), KT5720, PD98059 or Rolipram (45 min)

Stoichiometry N, 2:
B2
B3
B4
B5
B6
